Test results: PMC3795256, “Dynamic Regulation of Ero1α and Peroxiredoxin 4 Localization in the Secretory Pathway*^([image sbox.jpg])” (The Journal of Biological Chemistry, 2013)

B1: recombinant human Ero1α (WT) (natural protein, UniProt Q96HE7 24-468, looked up)
chain: EEQPPETAAQRCFCQVSGYLDDCTCDVETIDRFNNYRLFPRLQKLLESDYFRYYKVNLKRPCPFWNDISQCGRRDCAVKPCQSDEVPDGIKSASYKYSEEANNLIEECEQAERLGAVDESLSEETQKAVLQWTKHDDSSDNFCEADDIQSPEAEYVDLLLNPERYTGYKGPDAWKIWNVIYEENCFKPQTIKRPLNPLASGQGTSEENTFYSWLEGLCVEKRAFYRLISGLHASINVHLSARYLLQETWLEKKWGHNITEFQQRFDGILTEGEGPRRLKNLYFLYLIELRALSKVLPFFERPDFQLFTGNKIQDEENKMLLLEILHEIKSFPLHFDENSFFAGDKKEAHKLKEDFRLHFRNISRIMDCVGCFKCRLWGKLQTQGLGTALKILFSEKLIANMPESGPSYEFHLTRQEIVSLFNAFGRISTSVKELENFRNLLQNIH
notes: human Ero1α, wild type, recombinant; also called purified human Ero1α; source: recombinant, purified
B2: recombinant human ERp44 (natural protein, UniProt Q9BS26 30-406, looked up)
chain: EITSLDTENIDEILNNADVALVNFYADWCRFSQMLHPIFEEASDVIKEEFPNENQVVFARVDCDQHSDIAQRYRISKYPTLKLFRNGMMMKREYRGQRSVKALADYIRQQKSDPIQEIRDLAEITTLDRSKRNIIGYFEQKDSDNYRVFERVANILHDDCAFLSAFGDVSKPERYSGDNIIYKPPGHSAPDMVYLGAMTNFDVTYNWIQDKCVPLVREITFENGEELTEEGLPFLILFHMKEDTESLEIFQNEVARQLISEKGTINFLHADCDKFRHPLLHIQKTPADCPVIAIDSFRHMYVFGDFKDVLIPGKLKQFVFDLHSGKLHREFHHGPDPTDTAPGEQAQDVASSPPESSFQKLAPSEYRYTLLRDRDEL
notes: human ERp44, recombinant; a construct made in E. coli probably lacks the signal peptide; source: E. coli BL21 (DE3), purified (HisTrap, Superdex 200, Resource Q)
B3: recombinant human Prx4 (natural protein, UniProt Q13162 38-271, looked up)
chain: WETEERPRTREEECHFYAGGQVYPGEASRVSVADHSLHLSKAKISKPAPYWEGTAVIDGEFKELKLTDYRGKYLVFFFYPLDFTFVCPTEIIAFGDRLEEFRSINTEVVACSVDSQFTHLAWINTPRRQGGLGPIRIPLLSDLTHQISKDYGVYLEDSGHTLRGLFIIDDKGILRQITLNDLPVGRSVDETLRLVQAFQYTDKHGEVCPAGWKPGSETIIPDPAGKLKYFDKLN
notes: human Prx4, recombinant; a construct made in E. coli probably lacks the signal peptide; also called purified human Prx4; peroxiredoxin 4; source: E. coli BL21 (DE3), purified (HisTrap, Superdex 200, Resource Q)

Experiments:
Details in all cases: both partners purified
recombinant human PDI = biological target: T1, recombinant human PDI (human, UniProt P07237 18-508); assay: SPR; ProteOn XPR36; Ero1α (WT) or Prx4 amine-coupled to a GLC chip, PDI or ERp44 as analyte (0.444–36 μM); 25 °C; 20 mM HEPES-NaOH pH 7.4, 150 mM NaCl, 0.001% Tween, 2 mM EDTA; two-state model
T1 construct: human PDI, recombinant; also called protein disulfide isomerase; source: recombinant, purified
T1 sequence (P07237 18-508): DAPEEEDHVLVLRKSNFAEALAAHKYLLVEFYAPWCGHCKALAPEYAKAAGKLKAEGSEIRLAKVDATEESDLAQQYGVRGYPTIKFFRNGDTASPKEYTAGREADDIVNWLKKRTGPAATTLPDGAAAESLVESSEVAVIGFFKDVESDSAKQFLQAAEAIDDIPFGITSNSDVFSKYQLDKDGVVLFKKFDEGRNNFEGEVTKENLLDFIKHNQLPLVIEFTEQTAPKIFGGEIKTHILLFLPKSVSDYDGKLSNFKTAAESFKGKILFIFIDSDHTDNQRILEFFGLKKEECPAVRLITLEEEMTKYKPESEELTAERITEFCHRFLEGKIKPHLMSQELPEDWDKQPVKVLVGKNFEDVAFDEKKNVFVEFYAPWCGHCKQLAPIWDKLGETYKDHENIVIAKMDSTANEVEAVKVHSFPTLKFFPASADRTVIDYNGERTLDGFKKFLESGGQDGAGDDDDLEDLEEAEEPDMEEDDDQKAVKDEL

[1] = biological target: B1; assay: as above
[2] = biological target: B1; assay: SPR; ProteOn XPR36; Ero1α (WT) or Prx4 amine-coupled to a GLC chip, ERp44 as analyte (0.444–36 μM); 25 °C; 20 mM HEPES-NaOH pH 6.4, 150 mM NaCl, 0.001% Tween, 2 mM EDTA; two-state model
recombinant human ERp44 [3] = biological target: B2; assay: SPR; ProteOn XPR36; Ero1α (WT) or Prx4 amine-coupled to a GLC chip, PDI or ERp44 as analyte (0.444–36 μM); 25 °C; 20 mM HEPES-NaOH pH 7.4, 150 mM NaCl, 0.001% Tween, 2 mM EDTA; two-state model
recombinant human ERp44 [4] = biological target: B2; assay: SPR; ProteOn XPR36; Ero1α (WT) or Prx4 amine-coupled to a GLC chip, ERp44 as analyte (0.444–36 μM); 25 °C; 20 mM HEPES-NaOH pH 6.4, 150 mM NaCl, 0.001% Tween, 2 mM EDTA; two-state model

B1
Kd (recombinant human PDI): 1.94 µM

B2
Kd [1]: 10.4 µM
Kd [2]: 5.15 µM

B3
Kd (recombinant human ERp44 [3]): 17.9 µM
Kd (recombinant human ERp44 [4]): 6.92 µM
